Measurements published in patent US20240279318A1.

Assays:
Assay in all cases: SPR (BIAcore T200), crude scFv captured, mixed complexes flowed over
[1] = biological target: group 1: ZNF566 and ARNTL homologous peptide/HLA-A*02:01 complexes (mixed)
[2] = biological target: group 3: OR1I1, OR51B6, OR6C1, ATG9A, RP1 and NR2E1 homologous peptide/HLA-A*02:01 complexes (mixed)
[3] = biological target: group 2: CDC14A, PTP4A1, BRCA2 and RCL1 homologous peptide/HLA-A*02:01 complexes (mixed)

Row | SPR binding level [1] [RU] | SPR binding level [2] [RU] | SPR binding level [3] [RU] | Binder
1 | 0.8 | 0.2 | 0.4 | AS170036 VL1VH1 (scFv) scFv: QSALTQPRSVSGSPGQSVTISCAGTSSDVGSENYVSWYQQHPGKAPKLMIYQVNKRASGVPDRFSGSKSGNTASLTISGLQAEDEADYYCASYRSSDHNIVFGGGTKLTVLGGGGSGGGGSGGGGSEVQLVESGGGLVQPGGSLRLSCAASGFTFSSYAMSWVRQAPGKGLEWVSTINSGTGSPYYADSVKGRFTISRDNSKNTLYLQMNSLRAEDTAVYYCAKNFFDGSWFLGPPAMDYWGQGTLVTVSSHHHHHH
2 | 9 | 6 | 64.7 | 45-AS170036 VL1VH1-56Y98I108S (scFv) scFv: QSALTQPRSVSGSPGQSVTISCAGTSSDVGSENYVSWYQQHPGKAPKLMIYQVNKRASGVPDRFSGSKSGNTASLTISGLQAEDEADYYCASYRSSDINIVFGGGTKLTVLGGGGSGGGGSGGGGSEVQLVESGGGLVQPGGSLRLSCAASGFTFSSYAMSWVRQAPGKGLEWVSTINSGTYSPYYADSVKGRFTISRDNSKNTLYLQMNSLRAEDTAVYYCAKNFFDGSWFLSPPAMDYWGQGTLVTVSSHHHHHH
3 | 25.7 | 17.3 | 148 | 43-AS170036 VL1VH1-56Y98I108A (scFv) scFv: QSALTQPRSVSGSPGQSVTISCAGTSSDVGSENYVSWYQQHPGKAPKLMIYQVNKRASGVPDRFSGSKSGNTASLTISGLQAEDEADYYCASYRSSDINIVFGGGTKLTVLGGGGSGGGGSGGGGSEVQLVESGGGLVQPGGSLRLSCAASGFTFSSYAMSWVRQAPGKGLEWVSTINSGTYSPYYADSVKGRFTISRDNSKNTLYLQMNSLRAEDTAVYYCAKNFFDGSWFLAPPAMDYWGQGTLVTVSSHHHHHH
4 | 9.3 | 6.1 | 56.6 | 48-AS170036 VL1VH1-56Y98Q108S (scFv) scFv: QSALTQPRSVSGSPGQSVTISCAGTSSDVGSENYVSWYQQHPGKAPKLMIYQVNKRASGVPDRFSGSKSGNTASLTISGLQAEDEADYYCASYRSSDQNIVFGGGTKLTVLGGGGSGGGGSGGGGSEVQLVESGGGLVQPGGSLRLSCAASGFTFSSYAMSWVRQAPGKGLEWVSTINSGTYSPYYADSVKGRFTISRDNSKNTLYLQMNSLRAEDTAVYYCAKNFFDGSWFLSPPAMDYWGQGTLVTVSSHHHHHH
5 | 10.2 | 3.6 | 11.2 | 34-AS170036 VL1VH1-98I108A (scFv) scFv: QSALTQPRSVSGSPGQSVTISCAGTSSDVGSENYVSWYQQHPGKAPKLMIYQVNKRASGVPDRFSGSKSGNTASLTISGLQAEDEADYYCASYRSSDINIVFGGGTKLTVLGGGGSGGGGSGGGGSEVQLVESGGGLVQPGGSLRLSCAASGFTFSSYAMSWVRQAPGKGLEWVSTINSGTGSPYYADSVKGRFTISRDNSKNTLYLQMNSLRAEDTAVYYCAKNFFDGSWFLAPPAMDYWGQGTLVTVSSHHHHHH
6 | 6.3 | 4.4 | 39.3 | 42-AS170036 VL1VH1-56Y98F108S (scFv) scFv: QSALTQPRSVSGSPGQSVTISCAGTSSDVGSENYVSWYQQHPGKAPKLMIYQVNKRASGVPDRFSGSKSGNTASLTISGLQAEDEADYYCASYRSSDFNIVFGGGTKLTVLGGGGSGGGGSGGGGSEVQLVESGGGLVQPGGSLRLSCAASGFTFSSYAMSWVRQAPGKGLEWVSTINSGTYSPYYADSVKGRFTISRDNSKNTLYLQMNSLRAEDTAVYYCAKNFFDGSWFLSPPAMDYWGQGTLVTVSSHHHHHH
7 | 13.8 | 9.5 | 79.2 | 40-AS170036 VL1VH1-56Y98F108A (scFv) scFv: QSALTQPRSVSGSPGQSVTISCAGTSSDVGSENYVSWYQQHPGKAPKLMIYQVNKRASGVPDRFSGSKSGNTASLTISGLQAEDEADYYCASYRSSDFNIVFGGGTKLTVLGGGGSGGGGSGGGGSEVQLVESGGGLVQPGGSLRLSCAASGFTFSSYAMSWVRQAPGKGLEWVSTINSGTYSPYYADSVKGRFTISRDNSKNTLYLQMNSLRAEDTAVYYCAKNFFDGSWFLAPPAMDYWGQGTLVTVSSHHHHHH
8 | 15.3 | 6.5 | 21.1 | 49-AS170036 VL1VH1-56N98F108A (scFv) scFv: QSALTQPRSVSGSPGQSVTISCAGTSSDVGSENYVSWYQQHPGKAPKLMIYQVNKRASGVPDRFSGSKSGNTASLTISGLQAEDEADYYCASYRSSDFNIVFGGGTKLTVLGGGGSGGGGSGGGGSEVQLVESGGGLVQPGGSLRLSCAASGFTFSSYAMSWVRQAPGKGLEWVSTINSGTNSPYYADSVKGRFTISRDNSKNTLYLQMNSLRAEDTAVYYCAKNFFDGSWFLAPPAMDYWGQGTLVTVSSHHHHHH

More lines, now with the values behind:

Row | Binder | SPR binding level [1] [RU] | SPR binding level [2] [RU] | SPR binding level [3] [RU]
9 | 10-AS170036 VL1VH1-57K98F (scFv) scFv: QSALTQPRSVSGSPGQSVTISCAGTSSDVGSENYVSWYQQHPGKAPKLMIYQVNKRASGVPDRFSGSKSGNTASLTISGLQAEDEADYYCASYRSSDFNIVFGGGTKLTVLGGGGSGGGGSGGGGSEVQLVESGGGLVQPGGSLRLSCAASGFTFSSYAMSWVRQAPGKGLEWVSTINSGTGKPYYADSVKGRFTISRDNSKNTLYLQMNSLRAEDTAVYYCAKNFFDGSWFLGPPAMDYWGQGTLVTVSSHHHHHH | 6.8 | 1 | 4
10 | 16-AS170036 VL1VH1-56Y108A (scFv) scFv: QSALTQPRSVSGSPGQSVTISCAGTSSDVGSENYVSWYQQHPGKAPKLMIYQVNKRASGVPDRFSGSKSGNTASLTISGLQAEDEADYYCASYRSSDHNIVFGGGTKLTVLGGGGSGGGGSGGGGSEVQLVESGGGLVQPGGSLRLSCAASGFTFSSYAMSWVRQAPGKGLEWVSTINSGTYSPYYADSVKGRFTISRDNSKNTLYLQMNSLRAEDTAVYYCAKNFFDGSWFLAPPAMDYWGQGTLVTVSSHHHHHH | 4.5 | 3.2 | 32.6
11 | 27-AS170036 VL1VH1-57K108S (scFv) scFv: QSALTQPRSVSGSPGQSVTISCAGTSSDVGSENYVSWYQQHPGKAPKLMIYQVNKRASGVPDRFSGSKSGNTASLTISGLQAEDEADYYCASYRSSDHNIVFGGGTKLTVLGGGGSGGGGSGGGGSEVQLVESGGGLVQPGGSLRLSCAASGFTFSSYAMSWVRQAPGKGLEWVSTINSGTGKPYYADSVKGRFTISRDNSKNTLYLQMNSLRAEDTAVYYCAKNFFDGSWFLSPPAMDYWGQGTLVTVSSHHHHHH | 6.1 | 1.3 | 3.3
12 | 22-AS170036 VL1VH1-57H108A (scFv) scFv: QSALTQPRSVSGSPGQSVTISCAGTSSDVGSENYVSWYQQHPGKAPKLMIYQVNKRASGVPDRFSGSKSGNTASLTISGLQAEDEADYYCASYRSSDHNIVFGGGTKLTVLGGGGSGGGGSGGGGSEVQLVESGGGLVQPGGSLRLSCAASGFTFSSYAMSWVRQAPGKGLEWVSTINSGTGHPYYADSVKGRFTISRDNSKNTLYLQMNSLRAEDTAVYYCAKNFFDGSWFLAPPAMDYWGQGTLVTVSSHHHHHH | 26.6 | 5.7 | 10
13 | 03-AS170036 VL1VH1-56Y98Q (scFv) scFv: QSALTQPRSVSGSPGQSVTISCAGTSSDVGSENYVSWYQQHPGKAPKLMIYQVNKRASGVPDRFSGSKSGNTASLTISGLQAEDEADYYCASYRSSDQNIVFGGGTKLTVLGGGGSGGGGSGGGGSEVQLVESGGGLVQPGGSLRLSCAASGFTFSSYAMSWVRQAPGKGLEWVSTINSGTYSPYYADSVKGRFTISRDNSKNTLYLQMNSLRAEDTAVYYCAKNFFDGSWFLGPPAMDYWGQGTLVTVSSHHHHHH | 4 | 2.4 | 27.2
14 | 15-AS170036 VL1VH1-57M98Q (scFv) scFv: QSALTQPRSVSGSPGQSVTISCAGTSSDVGSENYVSWYQQHPGKAPKLMIYQVNKRASGVPDRFSGSKSGNTASLTISGLQAEDEADYYCASYRSSDQNIVFGGGTKLTVLGGGGSGGGGSGGGGSEVQLVESGGGLVQPGGSLRLSCAASGFTFSSYAMSWVRQAPGKGLEWVSTINSGTGMPYYADSVKGRFTISRDNSKNTLYLQMNSLRAEDTAVYYCAKNFFDGSWFLGPPAMDYWGQGTLVTVSSHHHHHH | 5.1 | 1.2 | 2.8
15 | 05-AS170036 VL1VH1-56N98I (scFv) scFv: QSALTQPRSVSGSPGQSVTISCAGTSSDVGSENYVSWYQQHPGKAPKLMIYQVNKRASGVPDRFSGSKSGNTASLTISGLQAEDEADYYCASYRSSDINIVFGGGTKLTVLGGGGSGGGGSGGGGSEVQLVESGGGLVQPGGSLRLSCAASGFTFSSYAMSWVRQAPGKGLEWVSTINSGTNSPYYADSVKGRFTISRDNSKNTLYLQMNSLRAEDTAVYYCAKNFFDGSWFLGPPAMDYWGQGTLVTVSSHHHHHH | 4.4 | 2 | 7
16 | 25-AS170036 VL1VH1-57K108A (scFv) scFv: QSALTQPRSVSGSPGQSVTISCAGTSSDVGSENYVSWYQQHPGKAPKLMIYQVNKRASGVPDRFSGSKSGNTASLTISGLQAEDEADYYCASYRSSDHNIVFGGGTKLTVLGGGGSGGGGSGGGGSEVQLVESGGGLVQPGGSLRLSCAASGFTFSSYAMSWVRQAPGKGLEWVSTINSGTGKPYYADSVKGRFTISRDNSKNTLYLQMNSLRAEDTAVYYCAKNFFDGSWFLAPPAMDYWGQGTLVTVSSHHHHHH | 10.9 | 2 | 6.3
17 | 19-AS170036 VL1VH1-56N108A (scFv) scFv: QSALTQPRSVSGSPGQSVTISCAGTSSDVGSENYVSWYQQHPGKAPKLMIYQVNKRASGVPDRFSGSKSGNTASLTISGLQAEDEADYYCASYRSSDHNIVFGGGTKLTVLGGGGSGGGGSGGGGSEVQLVESGGGLVQPGGSLRLSCAASGFTFSSYAMSWVRQAPGKGLEWVSTINSGTNSPYYADSVKGRFTISRDNSKNTLYLQMNSLRAEDTAVYYCAKNFFDGSWFLAPPAMDYWGQGTLVTVSSHHHHHH | 5 | 2.6 | 7.5
